The results in this text go back to US20160017016A1 (AstraZeneca / MedImmune, published 2016).

*1 amine or outer side, *2 acyl side, *3 side chain or, on linkers, in order; H or OH if unused. Primed or numbered codes have the meaning given here. Where no end group is shown, it is not given here. Side-chain parts run from the residue outwards. [ ]: non-standard residue; d: D form. The star is where a group is joined. PEG4′ = 4 PEG units (K(PEGxpalm): Lys with x PEG units and palmitoyl at epsilon N, C-terminal (PEG)4); γGlu = O=C(O)[C@H](CCC(=O)[*:2])N[*:1]; Palmitoyl = CCCCCCCCCCCCCCCC(=O)*; Aib = CC(C)(N)C(=O)O; PEG2′ = 2 PEG units

Chain of human glucagon receptor (GCGR) (P47871 26-477): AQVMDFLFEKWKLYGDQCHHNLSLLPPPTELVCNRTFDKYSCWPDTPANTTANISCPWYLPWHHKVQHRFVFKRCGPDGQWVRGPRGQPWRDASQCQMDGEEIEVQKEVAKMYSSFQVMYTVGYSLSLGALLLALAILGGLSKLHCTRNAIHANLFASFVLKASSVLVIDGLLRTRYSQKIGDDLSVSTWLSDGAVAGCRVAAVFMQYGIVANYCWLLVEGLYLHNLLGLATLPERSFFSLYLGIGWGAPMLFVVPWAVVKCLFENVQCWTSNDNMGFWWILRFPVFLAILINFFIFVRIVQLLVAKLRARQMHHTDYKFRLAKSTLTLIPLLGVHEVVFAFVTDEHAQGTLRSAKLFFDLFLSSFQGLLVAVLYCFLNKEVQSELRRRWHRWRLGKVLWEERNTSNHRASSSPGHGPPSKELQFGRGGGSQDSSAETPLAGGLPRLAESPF

One experiment addresses human glucagon receptor (GCGR) (human, UniProt P47871 26-477). As to the kind of experiment: cell-based or functional assay.
Consider HGQGTFTSDYSKYLDSXRAQDFVQWLV (K(gE-palm) at 17; C-terminal PEG3) [g690], for which the “cAMP activity, Glcg EC50 nM” value was 0.1 nM.
Still for that read-out and setting: as for HSQGTFTSDYSXYLDSRRAQDFVQWLV (K(gE-palm) at 12; C-terminal PEG4) [g416], the figure is 0.6 nM; as for H[Aib]QGTFTSDYSKYK([γGlu-Palmitoyl])DSERARDFVAWLV[PEG4′] [g868], 0.02 nM.
For the molecule HSQGTFTSDYSEYLDSK([γGlu-Palmitoyl])RAADFVQWLV[PEG4′] (not fully specified; printed as HSQGTFTSDYSEYLDSBRAADFVQWLVZ4) [g775], the “cAMP activity, Glcg EC50 nM” value stood at 0.08 nM.
Same read-out and setting: for HSQGTFTSDYSKYLDSRAAQK([γGlu-Palmitoyl])FVQWLV[PEG4′] [g809] the value was 0.07 nM; for HSQGTFTSDYSKYK([γGlu-Palmitoyl])DSRRAQDFVQWLV[PEG4′] [g426], 0.003 nM.
Take HSQGTFTSDYSKYLDSXRAQDFVQWLV (not fully specified; K(PEG4-gE-palm) at 17; C-terminal PEG4) [g964]: the “cAMP activity, Glcg EC50 nM” value stood at 0.002 nM.
Take HGQGTFTSDYSKYLDSXRAQDFVQWLV (K(gE-palm) at 17; C-terminal PEG4) [g430]: the “cAMP activity, Glcg EC50 nM” value is 0.8 nM.
On the same count and under the same terms, for HSQGTFTSDYSKYLDSRRAXDFVQWLV (K(gE-palm) at 20; C-terminal PEG4) [g456] the value was 0.07 nM; for HSQGTFTSDYSKYLDSXRAQDFVQWLV (not fully specified; K(PEG2-gE-palm) at 17; C-terminal PEG4) [g965], 0.002 nM.
On the same count and under the same terms, for HSQGTFTSDYSKYLDSK([PEG4′-γGlu-Palmitoyl])RARDFVAWLE[PEG2′] [g967] the value was 0.006 nM.
Still for that read-out and setting: for HSQGTFTSDYSKK([PEG4′-Palmitoyl])LDSSRARDFVAWLV[PEG4′] [g970] the value was 0.003 nM; for H[Aib]QGTFTSDYSKYLDSK([PEG4′-γGlu-Palmitoyl])RARDFVAWLV[PEG4′] [g968], 0.006 nM; for HSQGTFTSDYSKYLDSRRAQDFVQWLV (C-terminal PEG2) [g355], 0.03 nM.
Turning to HSQGTFTSDYSKYK([γGlu-Palmitoyl])DEERAQDFVQWLV[PEG4′] [g807], the “cAMP activity, Glcg EC50 nM” value amounted to 0.01 nM.
Same read-out and setting: as for HSQGTFTSDYSEYLDSK([γGlu-Palmitoyl])RAQDFVQWLV[PEG4′] [g676], the figure is 40 nM; as for HSQGTFTSDK([PEG4′-Palmitoyl])SKYLDSSRARDFVAWLV[PEG4′] [g971], 0.007 nM.
As for HSQGTFTSDYSKYLDSXRAQDFVQWLE (not fully specified; K(PEG2-PEG2-gE-palm) at 17; C-terminal PEG4) [g966], the “cAMP activity, Glcg EC50 nM” value was 0.001 nM.
Still for that read-out and setting: for HSQGTFTSDYSKYLDK([PEG4′-Palmitoyl])RRAQDFVQWEV[PEG4′] [g497] the value was 0.3 nM.
Same read-out and setting: as for HSQGTFTSDYSKYLDSRKAQDFVQWLE[PEG4′] (not fully specified (residue 18); printed as HSQGTFTSDYSKYLDSRB1AQDFVQWLEZ4) [g455], the figure is 0.001 nM.
On the same count and under the same terms, for HSQGTFTSDYSKYLDSK([γGlu-Palmitoyl])RAQDFVQWEV[PEG4′] [g458] the value was 9 nM.
Take HSQGTFTSDYSKYLDSK([PEG4′-Palmitoyl])RAQDFVQWEV[PEG4′] [g459]: the “cAMP activity, Glcg EC50 nM” value stood at 0.3 nM.

For another experiment, the target named is human GLP-1 receptor (GLP-1R) (human, UniProt P43220 24-463). The experiment can be described thus: cell-based or functional assay.
Consider HGQGTFTSDYSKYLDSXRAQDFVQWLV (K(gE-palm) at 17; C-terminal PEG3) [g690], for which the “cAMP activity, GLP1 EC50 nM” value was found to be 0.06 nM.
On the same count and under the same terms, as for HSQGTFTSDYSXYLDSRRAQDFVQWLV (K(gE-palm) at 12; C-terminal PEG4) [g416], the figure is 1 nM; as for H[Aib]QGTFTSDYSKYLDSK([γGlu-Palmitoyl])RAQDFVAWLV[PEG4′] [g870], 0.09 nM; as for HGQGTFTSDYSKYLDSXRAQDFVQWLV (K(gE-palm) at 17; C-terminal PEG2) [g691], 0.05 nM.
Still for that read-out and setting: as for HSQGTFTSDYSKYLDSK([γGlu-Palmitoyl])RARDFVAWLV[PEG4′] [g800], the figure is 0.09 nM; as for HSEGTFTSDYSKYLDSK([γGlu-Palmitoyl])RAQDFVQWLV[PEG4′] [g432], 0.07 nM; as for HSQGTFTSDYSEYLDSK([γGlu-Palmitoyl])RARDFVAWLV[PEG4′] [g784], 0.3 nM.
The same measure, in the same setting: as for HSQGTFTSDYSKYLDK([γGlu-Palmitoyl])RRAQDFVQWEV[PEG4′] [g496], the figure is 8 nM; as for HGQGTFTSDYSKYLDSXRAQDFVQWLV (K(gE-palm) at 17; C-terminal PEG6) [g692], 0.06 nM; as for HSQGTFTSDYSKYLDSRRAQDFVQWLV (C-terminal PEG4) [g356], 0.05 nM.
HSQGTFTSDYSKYLDSXRAQDFVQWLV (K(gE-palm) at 17; C-terminal PEG4) [g414]: the “cAMP activity, GLP1 EC50 nM” value came out at 0.2 nM.
On the same count and under the same terms, as for HGQGTFTSDYSRYLDSK([γGlu-Palmitoyl])RARDFVEWLV[PEG4′] [g719], the figure is 0.09 nM; as for HSQGTFTSDYSKYLDSRRAQXFVQWLV (K(gE-palm) at 21; C-terminal PEG4) [g808], 50 nM.
The same measure, in the same setting: for HGQGTFTSDYSEYLDSK([γGlu-Palmitoyl])RARDFVEWLV[PEG4′] [g677] the value was 0.3 nM; for HXQGTFTSDYSKYLDSXRAQDFVQWLV (alpha-amino-iso-butyric acid (Aib) at 2; K(gE-palm) at 17; C-terminal PEG4) [g500], 0.08 nM.
